Legend:
[1] = target: T1, R17 coat protein (R17cp) (bacteriophage R17, UniProt P69170 P69170:1-129); assay: filter; also gel shift; TMS or TMK buffer, 25 or 37 C; Kd said to agree with earlier studies but value not given; details: chain copies: 2; hairpin with bulged A
Description: The reaction was initiated by adding R17 coat protein at various concentrations (0.01 nM to 1 μM). After at least 20 minutes of incubation at the desired temperature, 450 μl of the reaction mixture was filtered through pre-soaked nitrocellulose filter (Millipore-HAWP 024–0,45 μM). The amount of complex retained by the filter was determined by liquid scintillation counting. The amount of input RNA was determined by spotting a 20 μl aliquot of the reaction mixture on a filter. The fraction bound by the filter was plotted as a function of protein concentration. As previously described (Carey et al., supra; Schneider et al., 1992 J. Mol. Biol. 228, 862), the maximum amount of fraction complexed varied between 40 and 100% depending on the RNA preparation. Results were normalized to 100% of retention at saturation for purposes of calculations and to compare different experiments. […] Dissociation constant (Kd) values were then obtained from a non-linear least-square fit using sigmaplot software (Jandel Scientific). Standard error was calculated from the fit of the observed curve to the theoretical one (reported by the sigmaplot software).
A filter binding assay (Carey, et al., 1983 Biochemistry 22, 2601) is used to confirm the results from gel-shift assay described above. Referring to FIG. 9, the R17cp binds to HpR17 as well as it binds to its genuine binding site (R17bs). […]

[2] = target: T1, R17 coat protein (R17cp); assay: filter; null mutant negative control; no specific complex in gel shift; details: chain copies: 2; hairpin
Description: Association constants were determined by filter-binding assays (Carey et al., 1983 Biochemistry 22, 2601). Trace amount of labeled RNA (15–32 fmoles) was heat denatured and renatured in 500 μl of T.M.S buffer (40 mM Tris-HCl pH 8, 12 mM MgCl_2 and 2 mM spermidine) or TMK buffer (40 mM Tris-Acetate pH 8, 10 mM Mg.Acetate, 80 mM KCl). The reaction was initiated by adding R17 coat protein at various concentrations (0.01 nM to 1 μM). After at least 20 minutes of incubation at the desired temperature, 450 μl of the reaction mixture was filtered through pre-soaked nitrocellulose filter (Millipore-HAWP 024–0,45 μM). The amount of complex retained by the filter was determined by liquid scintillation counting. The amount of input RNA was determined by spotting a 20 μl aliquot of the reaction mixture on a filter. The fraction bound by the filter was plotted as a function of protein concentration. As previously described (Carey et al., supra; Schneider et al., 1992 J. Mol. Biol. 228, 862), the maximum amount of fraction complexed varied between 40 and 100% depending on the RNA preparation. Results were normalized to 100% of retention at saturation for purposes of calculations and to compare different experiments. […] Standard error was calculated from the fit of the observed curve to the theoretical one (reported by the sigmaplot software). […]

T1 sequence (P69170 whole entry, one chain of several): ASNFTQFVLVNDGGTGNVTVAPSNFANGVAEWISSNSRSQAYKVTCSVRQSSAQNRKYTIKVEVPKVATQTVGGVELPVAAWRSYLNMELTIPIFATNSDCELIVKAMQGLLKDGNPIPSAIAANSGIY

| Binder | binding result [1] | binding result [2] |
| --- | --- | --- |
| GAAACAUGAGGAUCACCCAUGUUU (ssRNA) [R17bs] | binds |  |
| GAAACAUGGGAUCACCCAUGUUU (ssRNA) [R17deltaA8] |  | no binding |
